Assays:
[1] = biological target: FL HA H1N1 (influenza A virus H1N1); experiment: SEC-MALS of FL HA with Fab; theoretical value for trimer with 3 Fabs in brackets
s86B4 = experiment: SEC-MALS of polypeptide with Fab; conditions: remark: other sources report otherwise
s74H9 = experiment: SEC-MALS of polypeptide with Fab; conditions: remark: other sources report otherwise
s127H1 = experiment: SEC-MALS of polypeptide with Fab; conditions: remark: other sources report otherwise
s55G7 = experiment: SEC-MALS of polypeptide with Fab; conditions: remark: other sources report otherwise
s6E12 = experiment: SEC-MALS of polypeptide with Fab; conditions: remark: other sources report otherwise
[2] = biological target: T1, sH1 mini-HA GW1.5E2-FFH (Influenza A virus H1N1 A/Brisbane/59/2007); experiment: SEC-MALS with Fab fragments; conditions: remark: other sources report otherwise
sH1 mini-HA GW1.5E2-FFH = conditions: remark: other sources report otherwise
[3] = biological target: T1, sH1 mini-HA GW1.5E2-FFH (Influenza A …); experiment: biolayer interferometry (Octet), apparent Kd; CR6261; conditions: remark: other sources report otherwise

Fab fragment of CR6261
Mw of protein in complex with CRF6261, observed [1]: 396 kDa

Fab fragment of CR9114
Mw of protein in complex with CRF9114, observed [1]: 343 kDa

B1: Fab fragment of CR6261 (Fab, V domains shown)
VH: EVQLVESGAEVKKPGSSVKVSCKASGGPFRSYAISWVRQAPGQGPEWMGGIIPIFGTTKYAPKFQGRVTITADDFAGTVYMELSSLRSEDTAMYYCAKHMGYQVRETMDVWGKGTTVTVSS
VL: QSVLTQPPSVSAAPGQKVTISCSGSSSNIGNDYVSWYQQLPGTAPKLLIYDNNKRPSGIPDRFSGSKSGTSATLGITGLQTGDEANYYCATWDRRPTAYVVFGGGTKLTVLG
MW complex with CR6261, observed (s86B4): 75 kDa | MW complex with CR6261, observed (s74H9): 72 kDa | MW complex with CR6261, observed (s127H1): 74 kDa | MW complex with CR6261, observed (s55G7): 66 kDa | MW complex with CR6261, observed (s6E12): 67 kDa | Fab fragments bound per trimer (Fab fragments per trimer) [2]: 3 | Mw of protein in complex with CRF6261, observed (sH1 mini-HA GW1.5E2-FFH): 201 kDa

B2: monoclonal antibody CR6261 (antibody, V domains shown)
VH: EVQLVESGAEVKKPGSSVKVSCKASGGPFRSYAISWVRQAPGQGPEWMGGIIPIFGTTKYAPKFQGRVTITADDFAGTVYMELSSLRSEDTAMYYCAKHMGYQVRETMDVWGKGTTVTVSS
VL: QSVLTQPPSVSAAPGQKVTISCSGSSSNIGNDYVSWYQQLPGTAPKLLIYDNNKRPSGIPDRFSGSKSGTSATLGITGLQTGDEANYYCATWDRRPTAYVVFGGGTKLTVLG
Kd [3]: 1 nM
